{
  "source": "patent US20130059772A1",
  "about": "“Use of Repeat Sequence Protein Polymers in Personal Care Compositions” (DANISCO US INC., priority 2003, published 2013)",
  "key": {"[1]": {"tested_on": "elastase", "test": "Elastase inhibition assay (fibroblast lysate, STANA substrate)", "format": "biochemical, human", "conditions": "positive control", "method": "The RSPP test materials were also tested to determine their effect(s) on elastase activity. In these experiments, human dermal fibroblasts were used as a source of the elastase enzyme. This enzyme was partially purified from the fibroblasts by lysing the cells in an elastase buffer and retaining the soluble portion of the lysate. Portions of this fibroblast lysate were then incubated with test materials and a synthetic elastase substrate, Suc-(Ala3)-p-Nitroaniline (STANA). Elastase acts upon this substrate to release p-nitroaniline, which can be detected spectrophotometrically by measuring the absorbance at a wavelength of 405 nm. […]\nThe fibroblasts were washed twice with 15 ml of phosphate buffered saline with each wash removed via aspiration. […] The protein concentration of the fibroblast lysate was determined using the Pierce BCA Protein Assay kit (see below for details) and the fibroblast lysate was stored at −75° C. until used (for up to 1 year).\nUpon determining the protein concentration of the lysate, a small sample was obtained and the elastase activity of the lysate was determined at 1×, 0.5× and 0.25× concentrations. The activity was determined for each of the different concentrations in exactly the same way that the uninhibited sample was treated in the elastase assay (see below). […] After 1.25 hours, the well plate was removed and read in a 96-well plate reader at 405 nm. […]"}, "[2]": {"test": "UVB protection, initial MTT assay (material applied after UVB)", "conditions": "human, cultured dermal fibroblasts", "protocol": "(§1) In these experiments, the test material was tested at six concentrations with two duplicate sets of cells prepared. […] Changes in cell viability were then determined 48 hours post material application via an MTT assay, as described above.\n(§2) Fibroblasts were seeded into the individual wells of a 96 well plate in 100 μl FGM, and incubated overnight at 37±2° C. and 5±1% CO2. On the following day, the media were removed via aspiration to eliminate any non-adherent cells and replaced with 100 μl of fresh FGM. The cells were grown until confluent, with a media change every 48 to 72 hours.\n(§3) An UVLM-26 lamp was used as the source of UVB light. UV light intensity was measured using a UVX radiometer coupled to a UVB sensor probe (UV Products) to determine the time required to deliver an approximate dose of 50 mj/cm^2. Prior to UVB exposure, the FGM was replaced with 100 μl PBS. After exposure, the PBS was removed and replaced with FGM supplemented with either the test materials, 20 μM Trolox, or left unsupplemented. A duplicate set of cells was also prepared and treated as described above, with the exception that they were not exposed to UVB light. […] The cells were allowed to incubate with the test materials for 48 hours, and then changes in cell viability were determined via an MTT assay. […]\n(§4) After the 48-hour incubation, the cell culture medium was removed and the fibroblasts were washed with PBS to remove any remaining test material. […] The 96-well plate was then read at 540 nm using isopropyl alcohol as a blank.\n(§5) The mean MTT absorbance value for the negative control cells (non-UVB exposed and non test material treated cells) was calculated and used to represent 100% value for cell number. The individual MTT values from the cells undergoing the various treatments was then divided by the mean value for the negative control cells and expressed as a percent, to determine the change in cell viability caused by each treatment. MTT scores for each treatment are expressed as means±the standard deviation of the mean."}, "[3]": {"tested_on": "cultured dermal fibroblasts", "test": "UVB protection, initial MTT assay (material applied after UVB)", "conditions": "Homo sapiens, Fibroblast, light or radiation study, 48 h, read-out: +UVB Percent Viability", "protocol": "as §1, §2, §3, §4, §5"}, "[4]": {"tested_on": "elastin", "test": "Elastin assay (Fastin colorimetric assay of culture media)", "format": "cell-based, human", "conditions": "summary in words", "method": "Elastin is released by fibroblasts (soluble elastin) into the extracellular space where it is then cross-linked to other elastin proteins to form an extensive network of fibers and sheets (insoluble elastin). Soluble elastin can be readily measured from cell culture medium via a colorimetric assay.\nThe test materials were tested in triplicate.\nIn these experiments, the Biocolor Fastin Elastin Assay kits were used. A 50 μl aliquot of sample material (cell culture medium for soluble elastin) was mixed with 1.0 ml of cold Fastin Precipitating Reagent in a 1.5-ml microcentrifuge tube. […]\nTo release the elastin-bound dye, 1.0 ml of Fastin Destain reagent was added to each microcentrifuge tube. […] The absorbance of this solution was measured by a plate reader at 490 nm (200 μl volume read).\nAn elastin standard curve was generated using 12.5, 25, and 50 μg aliquots of an Elastin Standard into microcentrifuge tubes (in duplicate). These samples were treated as described above (Elastin Assay) and the absorbance values were used to generate a standard curve of known concentrations. To derive the standard curve for the elastin assay, the absorbance was plotted against the elastin concentration in μg/ml for the standards. […] Mean absorbance values for the test materials and untreated samples were then used to estimate the amount of elastin present in each sample."}, "[5]": {"tested_on": "Fibroblasts (HDFn Cell Line)", "test": "Initial pilot cell viability dose response (MTT assay)", "conditions": "for cell viability, percent of untreated cells: 48 hours", "protocol": "Initial screening was conducted to identify a test range suitable to determine the effect of a broad range of test material concentrations on cell viability. […] Cultured fibroblasts were exposed to the test materials for 48 hours and then changes in cell viability were determined using an MTT assay (i.e., a colorimetric analysis of the metabolic activity of the cultured cells, described in greater detail below).\nThe purple crystals are extracted from the cells with isopropanol and the amount of crystal formation quantified spectrophotometrically. […] A decrease in color intensity can be a sign of toxicity.\nFibroblasts (Cascade Biologics, HDFn Cell Line, lot#1C0914) were seeded into the individual wells of either a 96-well plate (for the initial pilot work to determine concentration effects on cell viability) in 100 μl of Fibroblast Growth Media (FGM) or in 12-well plates (for the measurement of collagen, elastin and MMP-1) in 1.0 ml of FGM and incubated overnight at 37±2° C. and 5±1% CO2. On the following day, the medium was removed via aspiration to eliminate any non-adherent cells and replaced with fresh FGM. The cells were grown until confluent, with a media change every 48 to 72 hours. Upon reaching confluency, the cells were treated for 24 hours with Dulbecco's Modified Essential Media (DMEM) supplemented with 1.5% FBS to wash out any effects from the growth factors included in the normal FGM. After this 24-hour wash out period, the cells were treated with the test materials at the specified concentrations dissolved in DMEM with 1.5% FBS. Untreated cells (negative controls) received DMEM with 1.5% FBS. The cells were incubated for 48 hours and at the end of the incubation period cell culture medium was either discarded (pilot work) or collected and stored frozen at −75° C. The test materials were tested in triplicate.\nAfter the 2-day incubation, the cell culture medium was removed and the fibroblasts were washed twice with PBS to remove any remaining test material. After the final wash, either 100 μl (96-well plates) or 300 μl (12-well plates) of DMEM supplemented with 0.5 mg/ml MTT were added to each well and the cells were incubated for 1 hour at 37±2° C. and 5±1% CO2. After the incubation, the DMEM/MTT solution was removed and the cells were washed again once with PBS and then either 100 μl (96-well plates) or 1 ml (12-well plates) of isopropyl alcohol were added to each well to extract the purple formazin crystals. For the 12-well plates, two hundred microliters of the isopropyl extracts was transferred to a 96-well plate. The 96-well plates were read at 540 nm using isopropyl alcohol as a blank. The mean MTT absorbance value for the negative control cells was calculated and used to represent 100% value for cell viability. The individual MTT values from the cells undergoing the various treatments were then divided by the mean value for the negative control cells and expressed as a percent, to determine the change in cell viability caused by each treatment."}},
  "data": [
    {"molecule": "CC(C)C[C@H](NP(=O)(O)O[C@@H]1O[C@@H](C)[C@H](O)[C@@H](O)[C@H]1O)C(=O)N[C@@H](Cc1c[nH]c2ccccc12)C(=O)O", "note": "[Phosphoramidon, phosphoramidon, reference compound]", "values": [
      {"measurement": "Percent Inhibition", "setting": "[1]; 30 nM", "result": 43, "unit": "%"},
      {"measurement": "Percent Inhibition", "setting": "[1]; 100 uM", "result": 96, "unit": "%"}
    ]},
    {"molecule": "Cc1c(C)c2c(c(C)c1O)CCC(C)(C(=O)O)O2", "note": "(stereo not shown) [Trolox]", "values": [
      {"measurement": "viability at 48 h, 20 µM", "setting": "[2]", "result": "120 ± 11", "unit": "%"},
      {"measurement": "viability at 20 µM", "setting": "[3]", "result": "77 ± 9", "unit": "%"}
    ]},
    {"molecule": "GC2596-26-A: monodispersed 13-mer SELP47K RSPP (Example 1)", "values": [
      {"measurement": "effect on elastin synthesis", "setting": "[4]", "result": "excellent increase"},
      {"measurement": "cell viability, percent of untreated cells", "setting": "[5]; 0.0014%", "result": "99 ± 1", "unit": "%"},
      {"measurement": "cell viability, percent of untreated cells", "setting": "[5]; 0.007%", "result": "101 ± 5", "unit": "%"},
      {"measurement": "cell viability, percent of untreated cells", "setting": "[5]; 0.014%", "result": "99 ± 10", "unit": "%"},
      {"measurement": "cell viability, percent of untreated cells", "setting": "[5]; 0.07%", "result": "96 ± 6", "unit": "%"},
      {"measurement": "cell viability, percent of untreated cells", "setting": "[5]; 0.14%", "result": "101 ± 4", "unit": "%"},
      {"measurement": "cell viability, percent of untreated cells", "setting": "[5]; 0.5%", "result": "171 ± 4", "unit": "%"},
      {"measurement": "cell viability, percent of untreated cells", "setting": "[5]; 1%", "result": "138 ± 7", "unit": "%"},
      {"measurement": "effect on the number of viable cells", "setting": "[5]; initial dose response, summary in words", "result": "strongly stimulate increases in the number of viable cells"}
    ]}
  ]
}
